B1: Transferrin receptor 2 (hTfR2): 3-Mut (protein)
parent chain: MERLWGLFQRAQQLSPRSSQTVYQRVEGPRKGHLEEEEEDGEEGAETLAHFCPMELRGPEPLGSRPRQPNLIPWAAAGRRAAPYLVLTALLIFTGAFLLGYVAFRGSCQACGDSVLVVSEDVNYEPDLDFHQGRLYWSDLQAMFLQFLGEGRLEDTIRQTSLRERVAGSAGMAALTQDIRAALSRQKLDHVWTDTHYVGLQFPDPAHPNTLHWVDEAGKVGEQLPLEDPDVYCPYSAIGNVTGELVYAHYGRPEDLQDLRARGVDPVGRLLLVRVGVISFAQKVTNAQDFGAQGVLIYPEPADFSQDPPKPSLSSQQAVYGHVHLGTGDPYTPGFPSFNQTQFPPVASSGLPSIPAQPISADIASRLLRKLKGPVAPQEWQGSLLGSPYHLGPGPRLRLVVNNHRTSTPINNIFGCIEGRSEPDHYVVIGAQRDAWGPGAAKSAVGTAILLELVRTFSSMVSNGFRPRRSLLFISWDGGDFGSVGSTEWLEGYLSVLHLKAVVYVSLDNAVLGDDKFHAKTSPLLTSLIESVLKQVDSPNHSGQTLYEQVVFTNPSWDAEVIRPLPMDSSAYSFTAFVGVPAVEFSFMEDDQAYPFLHTKEDTYENLHKVLQGRLPAVAQAVAQLAGQLLIRLSHDRLLPLDFGRYGDVVLRHIGNLNEFSGDLKARGLTLQWVYSARGDYIRAAEKLRQEIYSSEERDERLTRMYNVRIMRVEFYFLSQYVSPADSPFRHIFMGRGDHTLGALLDHLRLLRSNSSGTPGATSSTGFQESRFRRQLALLTWTLQGAANALSGDVWNIDNNF
B2: Transferrin receptor 2 (hTfR2): N240A (protein)
parent chain: B1 parent chain
B3: Transferrin receptor 2 (hTfR2): N754A (protein)
parent chain: B1 parent chain
B4: Transferrin receptor 2 (hTfR2): N339A (protein)
parent chain: B1 parent chain

Columns and labels:
Details in all cases: glycan lost; control: wild type
[1] = cell surface biotinylation, Western, HEK 293
[2] = confocal immunofluorescence, nonpermeabilized HEK 293
[3] = nonreducing SDS-PAGE Western, Hep3B stable cells
[4] = surface biotinylation, FLAG IP, nonreducing Avidin-HRP blot, Hep3B
[5] = Western after 12 h holo-Tf, Hep3B transient and stable

Row | Protein | localisation_or_trafficking [1] | localisation_or_trafficking [2] | oligomerisation [3] | localisation_or_trafficking [4] | other: holo-Tf-induced stabilisation (protein level), fold_change [5]
1 | B1 | no change | no change | decreases | no change | –
2 | B2 | – | – | – | – | no change
3 | B3 | – | – | – | – | no change
4 | B4 | – | – | – | – | no change
